This assay deals with prostate-specific membrane antigen (PSMA) (human) (UniProt Q04609). Kind of assay: flow cytometry; J591 (1:5000) plus Alexa488 secondary on PC3-PIP cells, PSMA-negative PC3-Flu cells as reference. (Flow cytometry measures light scatter and fluorescence of single cells or particles in a stream.)
UniProt Q04609, sequence (Q04609 whole entry): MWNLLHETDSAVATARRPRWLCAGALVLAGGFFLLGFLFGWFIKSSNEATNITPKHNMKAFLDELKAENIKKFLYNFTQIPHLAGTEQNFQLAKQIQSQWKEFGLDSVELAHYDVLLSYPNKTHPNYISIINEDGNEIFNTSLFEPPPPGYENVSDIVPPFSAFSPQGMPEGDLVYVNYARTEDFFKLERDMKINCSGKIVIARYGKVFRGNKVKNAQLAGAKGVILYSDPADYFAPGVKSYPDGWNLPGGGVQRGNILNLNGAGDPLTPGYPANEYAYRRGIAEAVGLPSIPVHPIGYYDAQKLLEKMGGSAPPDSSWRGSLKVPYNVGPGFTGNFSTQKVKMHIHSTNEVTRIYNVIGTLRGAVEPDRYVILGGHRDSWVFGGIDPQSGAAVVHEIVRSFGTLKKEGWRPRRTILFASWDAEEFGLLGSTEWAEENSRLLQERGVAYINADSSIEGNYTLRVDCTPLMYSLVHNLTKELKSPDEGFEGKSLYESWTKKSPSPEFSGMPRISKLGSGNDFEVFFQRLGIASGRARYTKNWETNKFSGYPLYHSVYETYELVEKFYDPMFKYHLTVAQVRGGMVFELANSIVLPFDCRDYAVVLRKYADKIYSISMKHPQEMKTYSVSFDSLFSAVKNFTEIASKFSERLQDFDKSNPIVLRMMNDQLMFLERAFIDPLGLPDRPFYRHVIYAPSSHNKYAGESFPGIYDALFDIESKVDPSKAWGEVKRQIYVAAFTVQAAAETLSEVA

anti-PSMA (J591) antibody: the percent of cells stained positive was 48.2%.
